In patent US20090239795A1 one finds Potency (nM), cAMP accumulation in CHO-GLP-1R cells data, which are given here for 3 substances.

The target in the experiment is rat GLP-1 receptor (rat) (UniProt P32301). In words: cell-based or functional assay.
As to “Exendin-4(1-30) (PEAPTD)2 mTf fusion protein (ligand)”, the Potency (nM), cAMP accumulation in CHO-GLP-1R cells worked out at 0.85 nM. “GLP-1(7-37,A8G,K34A) (PEAPTD)2 (SEQ ID NO: 5) mTf fusion protein (from UniProt P01275 98-128) (ligand)”: the Potency (nM), cAMP accumulation in CHO-GLP-1R cells is 1.3 nM. The figure for “Exendin-4(1-31) (PEAPTD)2 mTf fusion protein (ligand)” is 0.33 nM.
